We go through 3 molecules from patent US20240101645A1 (HENRY M JACKSON FOUNDATION FOR THE ADVANCEMENT OF MILITARY …, published 2024).

Assay [1] concerns the target T1, SARS-CoV-2 S on pseudovirions (Wuhan Hu-1 / IL1/2020, last 18 amino acids removed) (SARS-CoV-2, UniProt P0DTC2 14-1273). As to the kind of experiment: cell-based or functional assay.
Assay [2] has as its target SARS-CoV-1 spike antigens (bead panel) (SARS-CoV-1, UniProt P59594 14-1195). As to the kind of experiment: multiplex bead assay.
The target in assay [3] is T2, HCoV-OC43 spike antigens (bead panel) (HCoV-OC43, UniProt P36334 14-1297).
T2 sequence: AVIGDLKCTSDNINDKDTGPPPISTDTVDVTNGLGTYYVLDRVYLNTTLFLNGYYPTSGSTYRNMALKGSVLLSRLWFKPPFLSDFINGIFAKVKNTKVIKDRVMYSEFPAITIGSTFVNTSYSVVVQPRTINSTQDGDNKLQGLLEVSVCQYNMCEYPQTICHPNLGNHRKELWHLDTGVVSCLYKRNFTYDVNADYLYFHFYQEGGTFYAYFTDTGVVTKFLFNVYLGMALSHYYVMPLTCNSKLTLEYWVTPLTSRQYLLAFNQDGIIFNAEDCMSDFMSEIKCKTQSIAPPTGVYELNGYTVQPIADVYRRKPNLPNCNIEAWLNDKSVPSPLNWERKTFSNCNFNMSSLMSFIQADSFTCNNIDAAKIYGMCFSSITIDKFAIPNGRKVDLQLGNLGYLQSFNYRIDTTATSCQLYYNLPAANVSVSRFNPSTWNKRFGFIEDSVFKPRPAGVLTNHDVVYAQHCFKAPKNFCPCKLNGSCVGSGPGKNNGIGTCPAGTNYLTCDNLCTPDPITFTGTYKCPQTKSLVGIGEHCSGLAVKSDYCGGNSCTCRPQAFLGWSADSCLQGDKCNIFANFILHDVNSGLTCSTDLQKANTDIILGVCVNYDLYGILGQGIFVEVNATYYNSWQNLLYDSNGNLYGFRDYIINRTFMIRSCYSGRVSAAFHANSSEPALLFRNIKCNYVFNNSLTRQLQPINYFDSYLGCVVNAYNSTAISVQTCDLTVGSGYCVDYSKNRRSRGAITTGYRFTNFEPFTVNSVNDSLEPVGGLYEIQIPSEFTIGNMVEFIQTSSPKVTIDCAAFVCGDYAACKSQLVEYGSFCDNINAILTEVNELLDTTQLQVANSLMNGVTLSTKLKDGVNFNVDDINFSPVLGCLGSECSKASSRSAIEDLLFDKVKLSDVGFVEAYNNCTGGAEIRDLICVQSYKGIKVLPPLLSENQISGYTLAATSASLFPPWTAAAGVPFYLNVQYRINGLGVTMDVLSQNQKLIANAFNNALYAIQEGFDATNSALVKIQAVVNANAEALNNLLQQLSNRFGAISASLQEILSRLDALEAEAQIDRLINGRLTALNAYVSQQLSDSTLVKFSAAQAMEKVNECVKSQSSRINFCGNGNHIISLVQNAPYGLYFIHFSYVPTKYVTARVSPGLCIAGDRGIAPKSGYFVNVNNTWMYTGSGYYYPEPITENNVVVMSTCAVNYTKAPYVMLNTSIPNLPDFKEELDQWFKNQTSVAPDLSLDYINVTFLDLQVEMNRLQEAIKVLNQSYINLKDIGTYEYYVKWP
As to the kind of experiment: multiplex bead assay.

Assay [4] addresses T1, SARS-CoV-2 S on pseudovirions (Wuhan …). The experiment in a line: cell-based or functional assay. This is another data set of the same source.
Assay [5] has as its target T3, MERS-CoV spike antigens (bead panel) (MERS-CoV, UniProt K9N5Q8 18-1296).
T3 sequence: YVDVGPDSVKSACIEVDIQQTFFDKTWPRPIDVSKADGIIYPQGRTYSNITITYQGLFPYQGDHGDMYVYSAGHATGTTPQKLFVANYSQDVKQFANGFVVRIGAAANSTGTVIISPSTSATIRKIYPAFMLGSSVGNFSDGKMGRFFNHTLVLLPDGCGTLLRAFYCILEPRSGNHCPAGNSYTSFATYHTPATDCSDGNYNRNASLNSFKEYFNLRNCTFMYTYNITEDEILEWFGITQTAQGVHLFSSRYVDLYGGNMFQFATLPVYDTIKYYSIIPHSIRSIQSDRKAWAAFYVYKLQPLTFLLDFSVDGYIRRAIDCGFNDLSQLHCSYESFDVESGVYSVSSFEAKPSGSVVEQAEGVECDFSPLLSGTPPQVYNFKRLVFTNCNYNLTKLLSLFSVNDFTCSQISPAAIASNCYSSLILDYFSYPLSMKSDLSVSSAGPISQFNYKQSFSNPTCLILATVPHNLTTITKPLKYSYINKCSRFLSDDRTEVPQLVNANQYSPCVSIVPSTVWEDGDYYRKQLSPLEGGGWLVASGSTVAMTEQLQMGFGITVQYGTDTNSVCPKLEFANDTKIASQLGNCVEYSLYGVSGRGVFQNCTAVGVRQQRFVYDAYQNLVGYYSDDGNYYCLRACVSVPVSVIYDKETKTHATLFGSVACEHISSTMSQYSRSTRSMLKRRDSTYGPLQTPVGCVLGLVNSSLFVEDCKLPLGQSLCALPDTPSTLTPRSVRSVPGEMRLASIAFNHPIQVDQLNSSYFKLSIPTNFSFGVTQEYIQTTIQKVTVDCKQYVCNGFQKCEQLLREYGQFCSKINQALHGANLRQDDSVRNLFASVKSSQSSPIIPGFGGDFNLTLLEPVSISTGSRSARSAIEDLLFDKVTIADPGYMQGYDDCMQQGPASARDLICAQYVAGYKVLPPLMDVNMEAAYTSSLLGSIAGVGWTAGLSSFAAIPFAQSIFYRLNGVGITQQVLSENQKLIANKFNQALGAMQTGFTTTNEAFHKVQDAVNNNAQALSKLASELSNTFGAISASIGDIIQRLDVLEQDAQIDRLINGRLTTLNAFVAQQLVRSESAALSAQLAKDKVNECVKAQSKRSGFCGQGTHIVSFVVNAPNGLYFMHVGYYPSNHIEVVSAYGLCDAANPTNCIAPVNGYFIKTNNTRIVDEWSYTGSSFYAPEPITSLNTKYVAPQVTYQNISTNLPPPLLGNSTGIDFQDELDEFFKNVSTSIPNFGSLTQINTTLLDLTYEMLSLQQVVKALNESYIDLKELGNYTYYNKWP
The experiment in a line: multiplex bead assay.

The target of assay [6] is T4, HCoV-229E spike antigens (bead panel) (HCoV-229E, UniProt P15423 16-1115).
T4 sequence: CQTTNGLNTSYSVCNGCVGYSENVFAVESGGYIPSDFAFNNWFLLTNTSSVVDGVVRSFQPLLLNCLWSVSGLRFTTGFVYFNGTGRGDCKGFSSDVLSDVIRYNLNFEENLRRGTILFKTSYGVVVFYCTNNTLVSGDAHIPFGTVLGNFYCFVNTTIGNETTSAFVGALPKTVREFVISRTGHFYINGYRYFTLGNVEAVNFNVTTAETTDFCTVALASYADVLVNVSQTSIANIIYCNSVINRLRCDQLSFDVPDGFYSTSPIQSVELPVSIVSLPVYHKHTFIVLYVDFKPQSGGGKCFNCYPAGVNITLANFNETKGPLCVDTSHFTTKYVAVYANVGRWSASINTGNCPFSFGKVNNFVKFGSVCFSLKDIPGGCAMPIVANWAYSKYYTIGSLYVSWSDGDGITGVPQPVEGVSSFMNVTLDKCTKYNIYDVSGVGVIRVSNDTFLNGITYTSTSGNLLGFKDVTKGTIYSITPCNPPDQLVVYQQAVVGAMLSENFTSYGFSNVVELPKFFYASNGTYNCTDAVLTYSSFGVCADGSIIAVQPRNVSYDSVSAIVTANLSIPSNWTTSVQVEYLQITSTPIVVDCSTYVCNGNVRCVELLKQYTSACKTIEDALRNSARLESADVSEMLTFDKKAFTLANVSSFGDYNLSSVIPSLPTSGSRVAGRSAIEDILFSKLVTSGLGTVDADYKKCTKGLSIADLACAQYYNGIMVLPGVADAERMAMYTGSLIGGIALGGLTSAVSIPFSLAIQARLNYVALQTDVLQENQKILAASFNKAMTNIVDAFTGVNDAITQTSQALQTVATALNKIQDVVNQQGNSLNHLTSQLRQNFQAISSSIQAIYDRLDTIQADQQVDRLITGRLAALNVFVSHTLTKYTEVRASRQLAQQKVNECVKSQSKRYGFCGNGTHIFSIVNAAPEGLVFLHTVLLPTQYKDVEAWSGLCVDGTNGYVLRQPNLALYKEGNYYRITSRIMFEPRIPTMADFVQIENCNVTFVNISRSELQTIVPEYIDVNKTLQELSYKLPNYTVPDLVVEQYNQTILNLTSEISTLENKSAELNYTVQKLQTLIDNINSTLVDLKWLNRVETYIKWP
As to the kind of experiment: multiplex bead assay.

For assay [7], the target named is T5, HCoV-HKU1 spike antigens (bead panel) (HCoV-HKU1, UniProt Q5MQD0 13-1300).
T5 sequence: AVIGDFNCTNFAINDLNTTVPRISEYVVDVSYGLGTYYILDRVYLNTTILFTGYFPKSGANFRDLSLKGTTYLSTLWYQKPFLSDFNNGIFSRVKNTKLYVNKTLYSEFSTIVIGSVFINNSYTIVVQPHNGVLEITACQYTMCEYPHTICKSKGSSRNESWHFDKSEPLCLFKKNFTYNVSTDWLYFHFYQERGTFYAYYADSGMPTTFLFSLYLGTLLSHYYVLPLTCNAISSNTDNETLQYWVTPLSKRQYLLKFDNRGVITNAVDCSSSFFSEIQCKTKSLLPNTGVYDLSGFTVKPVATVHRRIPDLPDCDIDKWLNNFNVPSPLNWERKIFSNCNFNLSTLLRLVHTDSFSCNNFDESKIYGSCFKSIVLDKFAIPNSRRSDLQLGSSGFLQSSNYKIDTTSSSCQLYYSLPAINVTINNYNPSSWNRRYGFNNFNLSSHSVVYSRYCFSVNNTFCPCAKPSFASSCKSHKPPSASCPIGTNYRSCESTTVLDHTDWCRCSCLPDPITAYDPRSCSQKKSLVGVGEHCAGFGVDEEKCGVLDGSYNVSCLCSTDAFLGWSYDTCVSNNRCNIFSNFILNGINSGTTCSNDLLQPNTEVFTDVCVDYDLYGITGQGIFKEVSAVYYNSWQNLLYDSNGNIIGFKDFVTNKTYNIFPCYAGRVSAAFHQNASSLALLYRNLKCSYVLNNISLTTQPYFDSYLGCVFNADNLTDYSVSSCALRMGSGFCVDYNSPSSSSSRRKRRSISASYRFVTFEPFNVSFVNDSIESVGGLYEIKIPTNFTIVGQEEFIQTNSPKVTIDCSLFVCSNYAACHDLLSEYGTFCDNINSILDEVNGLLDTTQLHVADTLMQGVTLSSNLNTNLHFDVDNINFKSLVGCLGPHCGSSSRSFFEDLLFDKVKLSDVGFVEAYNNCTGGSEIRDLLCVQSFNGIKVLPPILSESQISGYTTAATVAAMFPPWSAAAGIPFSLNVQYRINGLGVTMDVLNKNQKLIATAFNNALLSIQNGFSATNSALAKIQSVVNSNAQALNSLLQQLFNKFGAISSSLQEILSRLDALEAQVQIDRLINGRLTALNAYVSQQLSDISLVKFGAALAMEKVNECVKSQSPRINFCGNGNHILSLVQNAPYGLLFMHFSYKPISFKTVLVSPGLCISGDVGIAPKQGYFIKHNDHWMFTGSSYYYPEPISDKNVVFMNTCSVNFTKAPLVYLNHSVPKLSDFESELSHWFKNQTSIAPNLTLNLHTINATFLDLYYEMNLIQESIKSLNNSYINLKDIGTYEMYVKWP
As to the kind of experiment: multiplex bead assay.

B1: COV_2165 (antibody, V domains shown)
VH: EVQLVESGGGLVQPGGSLRLSCAASGFTFSSYSMNWVRQAPGKGLEWVSYISSSSSTIYYADYVKGRFTISRDNAKNSLYLQMNSLRAEDRAVYYCARVARRDVAPATIAAYFLDYWGQGTLVTVSS
VL: EIVLTQSPATLSLSPGERATLSCRASQSLSSYLAWYQQKPGQAPRLLIYDASTRATGIPARFSGSGSGTDFTLTISSLEPEDFAVYYCQQRSTWPRGFTFGPGTKVDIK
notes: human IgG1
On to B1, for which the “IC50, pseudotyped neutralization assay” value in assay [1] was 10 ng/mL. The binding result in assay [2] is “no binding”. In addition, the binding result in assay [3] was “no binding”. For the same molecule, in assay [4], the “Mean IC50, pSV neutralization” value came to 0.02 µg/ml and the “Mean IC80, pSV neutralization” value stood at 0.04 µg/ml.

B2: COV_3103 (antibody, V domains shown)
VH: EVQLVESGGGLVQPGRSLRLSCVASGFIVENFAMHWVRQAPGKGLEWVSGITWNSASTGYVESVKGRFSISRDNGENSMFLEMNSLRPDDTALYYCVKATGSYWGFPMDVWGQGTTVTVSS
VL: EIVLTQSPGTLSLSPGEGGTLSCRASQSVRSNYLAWYQRKPGQAPRLLIYATSNRATGIPDRFSGSGSGTDFTLTISRLEPEDFAVYFCQHYGDSPYTFGQGTKLEIKR
notes: human IgG1
As for B2, the binding result in assay [2], in assay [5], in assay [6] and in assay [7] was “no binding” in each case.

B3: COV_2173 (antibody, V domains shown)
VH: QVQLQESGPGLVKPSETLSLTCSVSGDSISSSDYSWGWIRQPPGKGLEWIGTIYYIKNTYYNPSLRSRVTLSVDTSKNLFSLKLSSVTAADTAVYYCARERPPFDVVVVPAARPYNWFDPWGLGTLVIVSS
VL: QSVLMQPPSVSGAPGQRVTISCTGSSSNIGAGYDVHWYQQLPGTAPKLLIYGNNNRPSGVPDRFSGSKSGTSASLAITGLQADDEADYYCQSYDSSLSGSKVFGGGTKLTVL
notes: human IgG1
As for B3, in assay [1], the “IC50, pseudotyped neutralization assay” value was determined as 4 ng/mL. In addition, in assay [3], the binding result is listed as “no binding”. Also, the “Mean IC80, pSV neutralization” value in assay [4] came out at 0.01 µg/ml.
